From patent US11278600B2, “Human alpha-galactosidase variants” (Codexis, Inc., priority 2014, dated 2022)

Key:
Type in all cases: biochemical
[1] = HTP-analysis of yeast culture supernatants, no challenge (MUGal hydrolysis); settings: activity of the variant/activity of Rd4BB (SEQ ID NO: 15)
How it was run: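 GLA variants expressed in yeast INVSc1, secreted into SD-Ura broth over 66-84 h at 30° C; clarified supernatants tested without challenge. Supernatant mixed with McIlvaine buffer pH 4.8 and 2 mM MUGal (citrate/KCl, pH 4.6), 37° C for 30-180 min, carbonate-quenched, fluorescence Ex 355/Em 448 nm.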

[2] = HTP-analysis of supernatants pretreated with acid (MUGal hydrolysis); settings: activity of the variant/activity of Rd4BB (SEQ ID NO: 15); challenge at pH 3.7
How it was run: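 Yeast INVSc1 supernatant, GLA variants; acid challenge: McIlvaine pH 3.3-4.3, 37° C., 1-3 h. Assay: MUGal in McIlvaine pH 4.8 plus citrate pH 4.3, 37° C., 30-180 min, Na2CO3 stop, Ex 355/Em 448 nm.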

[3] = HTP-analysis of supernatants pretreated with base (MUGal hydrolysis); settings: activity of the variant/activity of Rd4BB (SEQ ID NO: 15); challenge at pH 9.65
How it was run: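 GLA variants secreted from yeast INVSc1; culture supernatants pre-incubated with McIlvaine buffer pH 7.0–8.2 or 200 mM bicarbonate pH 9.1–9.7 at 37° C. for 1–18 h. Residual activity: MUGal (4 mM stock) hydrolysis at pH 4.3–4.8, 37° C., 30–180 min, carbonate quench; fluorescence Ex 355/Em 448 nm.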

Molecule | Relative Activity of GLA Variants After No Challenge (NC) [1] | Relative Activity of GLA Variants After Challenge at pH 3.7 [2] | Relative Activity of GLA Variants After Challenge at pH 9.65 [3]
394 (protein, Synthetic Polypeptide sequence of Variant No. 394 of mature Human GLA) LDNGLARTPTMGWLHWERFMCNLDCQEEPDSCISEKLFMEMAERMVSEGWKDAGYEYLCIDDCWMAPQRDSEGRLQADPQRFPHGIRQLANYRHSKGLKLGIYADVGNKTCAGFPGSFGYYDIDAQTFADWGVDLLKFDGCYCDSLENLADGYKHMSLALNRTGRSIVYSCEWPLYMWPFQKPNYTEIRQYCNHWRNFADIDDSWKSIKSILDWTSRNQERIVDVAGPGGWNDPDMLVIGNFGLSWDQQVTQMALWAIMAAPLFMSNDLRHISPQAKALLQDKDVIAINQDPLGKQGYQLRKGDNFEVWERPLSGDAWAVAIINRQEIGGPRSYTIPVASLGKGVACNPACFITQLLPVKRQLGFYNWTSRLKSHINPTGTVLLQLENTMQMSLKDLL | + (0.5 to 1.5 relative activity over Rd4BB (SEQ ID NO: 15)) | + (0.5 to 1.5 relative activity over Rd4BB (SEQ ID NO: 15)) | − (<0.5 relative activity over Rd4BB (SEQ ID NO: 15))
398 (protein, Synthetic Polypeptide sequence of Variant No. 398 of mature Human GLA) LDNGLARTPTMGWLHWERFMCNLDCQEEPDSCISEKLFMEMAERMVSEGWKDAGYEYLCIDDCWMAPQRDSEGRLQADPQRFPHGIRQLANYVHSKGLKLGIYADVGNKTCAGFPGSFGYYDIDAQTFADWGVDLLKFDGCYCDSLENLADGYKHMSLSLNRTGRSIVYSCEWPLYMWPFQKPNYTEIRQYCNHWRNFADIDDSWKSIKSILDWTSRNQERIVDVAGPGGWNDPDMLVIGNFGLSWDQQVTQMALWAIMAAPLFMSNDLRHISPQAKALLQDKDVIAINQDPLGKQGYQLRKGDNFEVWERPLSGDAWAVAIINRQEIGGPRSYTIPVASLGKGVACNPACFITQLLPVKRQLGFYNWTSRLKSHINPTGTVLLQLENTMQMSLKDLL | + (0.5 to 1.5 relative activity over Rd4BB (SEQ ID NO: 15)) | ++ (>1.5 to 2.5 relative activity over Rd4BB (SEQ ID NO: 15)) | − (<0.5 relative activity over Rd4BB (SEQ ID NO: 15))
397 (protein, Synthetic Polypeptide sequence of Variant No. 397 of mature Human GLA) LDNGLARTPTMGWLHWERFMCNLDCQEEPDSCISEKLFMEMAERMVSEGWKDAGYEYLCIDDCWMAPQRDSEGRLQADPQRFPHGIRQLANYVHSKGLKLGIYADVGNKTCAGFPGSFGYYDIDAQTFADWGVDLLKFDGCYCDSLENLADGYKHMSRALNRTGRSIVYSCEWPLYMWPFQKPNYTEIRQYCNHWRNFADIDDSWKSIKSILDWTSRNQERIVDVAGPGGWNDPDMLVIGNFGLSWDQQVTQMALWAIMAAPLFMSNDLRHISPQAKALLQDKDVIAINQDPLGKQGYQLRKGDNFEVWERPLSGDAWAVAIINRQEIGGPRSYTIPVASLGKGVACNPACFITQLLPVKRQLGFYNWTSRLKSHINPTGTVLLQLENTMQMSLKDLL | + (0.5 to 1.5 relative activity over Rd4BB (SEQ ID NO: 15)) | + (0.5 to 1.5 relative activity over Rd4BB (SEQ ID NO: 15)) | + (0.5 to 1.5 relative activity over Rd4BB (SEQ ID NO: 15))
399 (protein, Synthetic Polypeptide sequence of Variant No. 399 of mature Human GLA) LDNGLARTPTMGWLHWERFMCNLDCQEEPDSCISEKLFMEMAERMVSEGWKDAGYEYLCIDDCWMAPQRDSEGRLQADPQRFPHGIRQLANYVHSKGLKLGIYADVGNKTCAGFPGSFGYYDIDAQTFADWGVDLLKFDGCYCDSLENLADGYKHMSLALNRTGKSIVYSCEWPLYMWPFQKPNYTEIRQYCNHWRNFADIDDSWKSIKSILDWTSRNQERIVDVAGPGGWNDPDMLVIGNFGLSWDQQVTQMALWAIMAAPLFMSNDLRHISPQAKALLQDKDVIAINQDPLGKQGYQLRKGDNFEVWERPLSGDAWAVAIINRQEIGGPRSYTIPVASLGKGVACNPACFITQLLPVKRQLGFYNWTSRLKSHINPTGTVLLQLENTMQMSLKDLL | + (0.5 to 1.5 relative activity over Rd4BB (SEQ ID NO: 15)) | + (0.5 to 1.5 relative activity over Rd4BB (SEQ ID NO: 15)) | + (0.5 to 1.5 relative activity over Rd4BB (SEQ ID NO: 15))
395 (protein, Synthetic Polypeptide sequence of Variant No. 395) LDNGLARTPTMGWLHWERFMCNLDCQEEPDSCISEKLFMEMAERMVSEGWKDAGYEYLCIDDCWMAPQRDSEGRLQADPQRFPHGIRQLANHVHSKGLKLGIYADVGNKTCAGFPGSFGYYDIDAQTFADWGVDLLKFDGCYCDSLENLADGYKHMSLALNRTGRSIVYSCEWPLYMWPFQKPNYTEIRQYCNHWRNFADIDDSWASIKSILDWTSRNQERIVDVAGPGGWNDPDMLVIGNFGLSWDQQVTQMALWAIMAAPLFMSNDLRHISPQAKALLQDKDVIAINQDPLGKQGYQLRKGDNFEVWERPLSGDAWAVAIINRQEIGGPRSYTIPVASLGKGVACNPACFITQLLPVKRQLGFYNWTSRLKSHINPTGTVLLQLENTMQMSLKDLL | + (0.5 to 1.5 relative activity over Rd4BB (SEQ ID NO: 15)) | + (0.5 to 1.5 relative activity over Rd4BB (SEQ ID NO: 15)) | + (0.5 to 1.5 relative activity over Rd4BB (SEQ ID NO: 15))
400 (protein, Synthetic Polypeptide sequence of Variant No. 400 of mature Human GLA) LDNGLARTPTMGWLHWERFMCNLDCQEEPDSCISEKLFMEMAERMVSEGWKDAGYEYLCIDDCWMAPQRDSEGRLQADPQRFPHGIRQLANYVHSKGLKLGIYADVGNKTCAGFPGSFGYYDIDAQTFADWGVDLLKFDGCYCDSLENLADGYKHMSCALNRTGRSIVYSCEWPLYMWPFQKPNYTEIRQYCNHWRNFADIDDSWKSIKSILDWTSRNQERIVDVAGPGGWNDPDMLVIGNFGLSWDQQVTQMALWAIMAAPLFMSNDLRHISPQAKALLQDKDVIAINQDPLGKQGYQLRKGDNFEVWERPLSGDAWAVAIINRQEIGGPRSYTIPVASLGKGVACNPACFITQLLPVKRQLGFYNWTSRLKSHINPTGTVLLQLENTMQMSLKDLL | + (0.5 to 1.5 relative activity over Rd4BB (SEQ ID NO: 15)) | + (0.5 to 1.5 relative activity over Rd4BB (SEQ ID NO: 15)) | − (<0.5 relative activity over Rd4BB (SEQ ID NO: 15))
396 (protein, Synthetic Polypeptide sequence of Variant No. 396 of mature Human GLA) LDNGLARTPTMGWLHWERFMCNLDCQEEPDSCISEKLFMEMAERMVSEGWKDAGYEYLCIDDCWMAPQRDSEGRLQADPQRFPHGIRQLANYVHSKGLKLGIYADVGNKTCAGFPGSFGYYDIDAQTFADWGVDLLKFDGCYCDSLENLADGYKHMSMALNRTGRSIVYSCEWPLYMWPFQKPNYTEIRQYCNHWRNFADIDDSWKSIKSILDWTSRNQERIVDVAGPGGWNDPDMLVIGNFGLSWDQQVTQMALWAIMAAPLFMSNDLRHISPQAKALLQDKDVIAINQDPLGKQGYQLRKGDNFEVWERPLSGDAWAVAIINRQEIGGPRSYTIPVASLGKGVACNPACFITQLLPVKRQLGFYNWTSRLKSHINPTGTVLLQLENTMQMSLKDLL | + (0.5 to 1.5 relative activity over Rd4BB (SEQ ID NO: 15)) | + (0.5 to 1.5 relative activity over Rd4BB (SEQ ID NO: 15)) | + (0.5 to 1.5 relative activity over Rd4BB (SEQ ID NO: 15))
361 (protein, Synthetic Polypeptide sequence of Variant No. 361 of mature Human GLA) LDNGLARTPTMGWLHWERFMCNLDCQEEPDSCISEKLFMEMAERMVREGWKDAGYEYLCIDDCWMAPQRDSEGRLQADPQRFPHGIRQLANYVHSKGLKLGIYADVGNKTCAGFPGSFGYYDIDAQTFADWGVDLLKFDGCYCDSLENLADGYKHMSLALNRTGRSIVYSCEWPLYMWPFQKPNYTEIRQYCNHWRNFADIDDSWKSIKSILDWTSRNQERIVDVAGPGGWNDPDMLVIGNFGLSWDQQVTQMALWAIMAAPLFMSNDLRHISPQAKALLQDKDVIAINQDPLGKQGYQLRKGDNFEVWERPLSGDAWAVAIINRQEIGGPRSYTIPVASLGKGVACNPACFITQLLPVKRQLGFYNWTSRLKSHINPTGTVLLQLENTMQMSLKDLL | + (0.5 to 1.5 relative activity over Rd4BB (SEQ ID NO: 15)) | + (0.5 to 1.5 relative activity over Rd4BB (SEQ ID NO: 15)) | + (0.5 to 1.5 relative activity over Rd4BB (SEQ ID NO: 15))
